B1: Tyrosine-protein kinase-interacting protein (Saimiriine herpesvirus 2 (strain 488) (SaHV-2)), P22575 (parent)
chain: MANEGEEIELTEFPETEKERKDEEKLSSCSEETTNTSSSSGSDHVPVPIEVNVIIQNSSRTEDELQNSKEIELTGFQGKLSSCSEETTAPSSSYSSKQASVFIEENGDNETSTYRPQNVLTNLNSLYTTFEDARAQGKGMVRHKSEDLQSFLEKYPPDFRKPKRDLSATWDPGMPTPPLPPRPANLGERQASTVRLHVKESNCKQPRERKANERNIVKDLKRLENKINVIICLVVVILAVLLLVTVLSILHIGMKS

Experiments:
cd4_human CD4, P01730 = variants of: B1; details: with cd4_human CD4, P01730
lck_human LCK, P06239 = variants of: B1; details: with lck_human LCK
lck_human LCK, P06239, sequence (P06239 whole entry, looked up): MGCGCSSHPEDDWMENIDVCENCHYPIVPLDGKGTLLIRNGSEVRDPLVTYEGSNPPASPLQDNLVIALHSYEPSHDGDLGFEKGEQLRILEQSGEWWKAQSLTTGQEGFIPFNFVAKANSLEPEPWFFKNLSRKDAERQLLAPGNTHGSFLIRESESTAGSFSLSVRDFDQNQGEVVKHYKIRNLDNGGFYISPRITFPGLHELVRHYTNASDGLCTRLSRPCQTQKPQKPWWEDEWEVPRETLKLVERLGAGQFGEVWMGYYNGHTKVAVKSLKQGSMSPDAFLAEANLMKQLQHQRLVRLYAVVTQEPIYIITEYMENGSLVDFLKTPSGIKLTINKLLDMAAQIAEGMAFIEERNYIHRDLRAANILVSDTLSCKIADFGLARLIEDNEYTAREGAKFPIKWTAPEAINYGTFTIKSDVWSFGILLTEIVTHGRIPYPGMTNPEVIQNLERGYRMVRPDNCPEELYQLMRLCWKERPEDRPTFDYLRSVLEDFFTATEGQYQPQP

Row | Variant | effect of a mutation on the interaction (cd4_human CD4, P01730) | effect of a mutation on the interaction (lck_human LCK, P06239)
1 | MANEGEEIELTEFPETEKERKDEEKLSSCSEETTNTSSSSGSDHVPVPIEVNVIIQNSSRTEDELQNSKEIELTGFQGKLSSCSEETTAPSSSYSSKQASVFIEENGDNETSTYRPQNVLTNLNSLYTTFEDARAQGKGMVRHKSEDLQSFLEKYPPDFRKPKRDLSATWDPGMATPPLPPRPANLGERQASTVRLHVKESNCKQPRERKANERNIVKDLKRLENKINVIICLVVVILAVLLLVTVLSILHIGMKS [P175A] | decreasing interaction | decreasing interaction
2 | MANEGEEIELTEFPETEKERKDEEKLSSCSEETTNTSSSSGSDHVPVPIEVNVIIQNSSRTEDELQNSKEIELTGFQGKLSSCSEETTAPSSSYSSKQASVFIEENGDNETSTYRPQNVLTNLNSLYTTFEDARAQGKGMVRHKSEDLQSFLEKYPPDFRKPKRDLSATWDPGMPTPALPPRPANLGERQASTVRLHVKESNCKQPRERKANERNIVKDLKRLENKINVIICLVVVILAVLLLVTVLSILHIGMKS [P178A] | decreasing interaction | decreasing interaction
3 | MANEGEEIELTEFPETEKERKDEEKLSSCSEETTNTSSSSGSDHVPVPIEVNVIIQNSSRTEDELQNSKEIELTGFQGKLSSCSEETTAPSSSYSSKQASVFIEENGDNETSTYRPQNVLTNLNSLYTTFEDARAQGKGMVRHKSEDLQSFLEKYPPDFRKPKRDLSATWDPGMPTPPLAPRPANLGERQASTVRLHVKESNCKQPRERKANERNIVKDLKRLENKINVIICLVVVILAVLLLVTVLSILHIGMKS [P180A] | decreasing interaction | decreasing interaction
4 | MANEGEEIELTEFPETEKERKDEEKLSSCSEETTNTSSSSGSDHVPVPIEVNVIIQNSSRTEDELQNSKEIELTGFQGKLSSCSEETTAPSSSYSSKQASVFIEENGDNETSTYRPQNVLTNLNSLYTTFEDARAQGKGMVRHKSEDLQSFLEKYPPDFRKPKRDLSATWDPGMPTPPLPPRAANLGERQASTVRLHVKESNCKQPRERKANERNIVKDLKRLENKINVIICLVVVILAVLLLVTVLSILHIGMKS [P183A] | decreasing interaction | decreasing interaction
5 | MANEGEEIELTEFPETEKERKDEEKLSSCSEETTNTSSSSGSDHVPVPIEVNVIIQNSSRTEDELQNSKEIELTGFQGKLSSCSEETTAPSSSYSSKQASVFIEENGDNETSTYRPQNVLTNLNSLYTTFEDARAQGKGMVRHKSEDLQSFLEKYPPDFRKPKRDLSATWDPGMPTAPLPPRPANLGERQASTVRLHVKESNCKQPRERKANERNIVKDLKRLENKINVIICLVVVILAVLLLVTVLSILHIGMKS [P177A] | – | decreasing interaction
